Measurements published in the nanobody polyreactivity screen of Harvey et al. (2022).

Assay: yeast display, Sf9 membrane polyspecificity reagent, FACS + sequencing; frameworks hold sequencing errors
In short: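 Polyreactivity labels are assigned by the sorting gate from which each nanobody was recovered. The gates were low and high (top ~1%), set on anti-HA fluorescence for expression and streptavidin fluorescence for reagent binding. Before sorting, galactose-induced (36–48 hours) yeast display cells were stained for 1 hour at 4 °C with 10% biotinylated, detergent-solubilized Sf9 membrane reagent.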

| Sequence | polyreactivity (PSR sort gate) |
| --- | --- |
| QVQLVESGGGLVQAGGSLRLSCAASGFIVRSYAMGWYRQAPGKERELVAVISRRGVNTHYADSVKGRFTISRDNAKNTVYFQMNSLKPEDTAVYYCAKGLTALGDYWGQGTQVTVSS | high polyreactivity |
| QVQLVESGGGLVQAGGSLRLSCAASGSIFRKNVMGWSRPAPGKERELVAAITASGGRTYYADSVKGRFTISRDNAKNTVYLQMNSLKPEDTAVYYCAARRYYPYISSGPYYYWGQGTQVTVSS | high polyreactivity |
| QVQLVESGGGLVQAGGSLRLSCADSGSIFTSNGMGWYRHAPGKERELVAAITSGTSTYYADSVKGRFTISRDNAKNTVYLQMNSLKPEDTAVYYCAAGRWWVYRYARYYYWGQGTQVTVSS | high polyreactivity |
| QVQLVESGVGLVQAGGSHPLSCAASGSTLRYAMGWNRQAPGKETELVAAISRTGGSTYYADSVKGRFTISRDNAKNTVYLQMNSLKPEDPAVYYCAARYFTSYPLYYYWGQGTQVTVSS | high polyreactivity |
| QVQLVESGGGLVQAGGSLRLSCAASGFTFPWYAMGWYRQAPGKERELVAAISTSGDSTYYADSVKGRFTISRDNAKNTVYLQMNSLKPEDTAVYYCAARVVRGRYGYWGQGTQVTVSS | high polyreactivity |
| QVQLVESGGGLVQAGGSLRLSCAASGFILYSYAMGWYRQAPGKERELVADITGTGGRTYYADSVKGRFTISRDNAKNTVYLQMNSLKPEDTAVYYCNKGPFFVFRTTRYYEYDYWGQGTQVTVSS | low polyreactivity |
| QVQLVESGGGLFQAGGSLRLSCAASGRTFGYNVMGWYRQATGKERELVAGITSSGSTNYADSVKGRFTISRDNVKNTFYLQMNSLKPEETAVYYCAAGDRRWGFQVGYWGQGTQVTVSS | high polyreactivity |
| QVQLVESGGGLVQAGGSLRLSCAASGYMGWYRQAPGKERELVATISGSGGSTYYADSVKGRFTISRDNAKNTVYLQMNSLKPEDTAVYYCTTEIWGVNRSGYDYWGQGTQVTVSS | low polyreactivity |
| QVQLVESWGGLVQAGGSLRLSCAASGFTLYYYAMGWYRPAPGKERELVARISLRGGRTYYADSVKGRFTISRDNAKTTVYLQMNSLKPEESAVYYCAAVGRYPITWESGESDYWGQGTQVTVSS | high polyreactivity |
| QVQLVDSGGGLVQAGGSLRLSCAASGRTFHKYAMGWYRQAPGKERELVAAISNGGRTYYADSVKGRFTISRDNAKNTLYLQMNSLKPEDTAVYYCNADRTWKGRQYDYWGQGTQVTVSS | high polyreactivity |
| QVQLVESGGGLVQAGGSLRLSCAASGFTISFYAMGWYRQAPGKERELVAAITWNGGNTYYADSVKGRFTISRDNAKNTVYLQMNSLKPEDTAVYYCNKDSYYYHFDYWGQGTQVTVSS | high polyreactivity |
| QVQLVESGGRLVQAGGSLRLSCAASGITFYLNAMGWYRQAPGKERELVADITVSGGSTYYADSVKGRFTISRDNAKNTVYLQMNSLKPEDTAVYYCAADLTISYSQEYYYWGQGNQVTVSS | low polyreactivity |
| QVQLVESGGGLVQAGGSLRLSCAASGRIFGYYAMGWYRQAPGKESELVARISSSGGSTYYADSVKGRFTISRDNAKNTVYLQMNSLKPEDTAVYYCNTASNRSPGWRAEFDYWGQGTQVTVSS | low polyreactivity |
| QVQLEESGGGLVQAGGSLRLTCAASGRIFYRYGMGWYRQATGKERELVAAISRTGGSTYYADSVKGRFTISRDNAKNSVYLQMNSLKPEDTAVYYCNATSNYRYDFWGQGTQVTVSS | low polyreactivity |
| QVQLVESGGGLVQAGGSLRLSCAASGRIFLSNAMGRYRQAPRKDRELVAAISWTGGSTYYADSVKGRFTISRDNAKNTVYLQMNSLKPEDTAVYYCAASTVGQTYSYYVDTYDYWGQGTQVTVSS | low polyreactivity |
| QVHLVESGGGLVQAGGSLRLTCAASGRTFPGYDMGWYRQAPGKERELVAAISWSGTSTYYADSVKGRFTISRDNSKNTVYLQMNSLIPEDTAVYYCAARVKGQWNTYEYWGQGTQVTVSS | high polyreactivity |
| QVQLVESGGGLVQAGGSLRLSCAASGLTFKSYAMGWNRQAPGKERELVAVISSSGGRTYYADSVKGRFTISRDNAKNTVYLQMNSLKPEDTAVYYCAADGSYGKWGGHAMYYLGQGTQVTVSS | high polyreactivity |
| QDQLVESGGGKVQAGGSLRLRCAASGRIFQYYTMVWSRQAPGKERELVAGITRGDRTYADSVKGRFTISRDNAKNTVYLQMNSLKQEDTAVYYCNADVYPYTLALPAGMGYWGQGTQVTVSS | high polyreactivity |
| QVQLVESGGGLVQAGGSLRLSCAASGSIFTHNAMGWYRQAPGKERVLVAAISSGGSTNYADSVKGRFTISRDNAKNTVYLQMNSLKPEDTAVYYCAKSIDGWYWRRRRYDYWGQGTQVTVSS | low polyreactivity |
| QVQLEESGGGLVQAGGSLRLSCAASGSTFGYNAMGWYRQAPGKERELVAAITSGGRTKYADSVKGRFTISRDNAKNTVYLQMNSLKPEDTAVYYCATDQSYRFLFYRAYDMDYWGQGTQVTVSS | high polyreactivity |
| QVQLVESGGGLVQAGGSLRLSCAASGSTFDVYAMGWYRQAPGKERELVAAIRSSGGSTFYADSVKGRFTISRDNAKNIVYLQMISLNPEDTAVYYCAARSFVVSGYNKYYEYGYWGQGTHVTVSS | low polyreactivity |
| QVQLVQSGGGLVQAGGSLRLSCAASGRIFPRYGMGWYRQAPGKERELCADITSSGSTYADSVKGRFTISRDNAKNTDYLQMHSLKPEDTAVYYCNALDRRLSYSWRYRQLYDYWGQGTQGTVSS | high polyreactivity |

| Sequence | polyreactivity (PSR sort gate) |
| --- | --- |
| QVQLVESGGGLVQAGGSLRLSCAASGSTFLYNAMGWYRQAPGKEREFVAAISGSGGTTYYADSVKGRFTISRDNAKNTVYLQMNSLNPEDTAVYYCAVSQSWYWYYASDYWGQGTQVTVSS | low polyreactivity |
| QVQLVESGGGLVQAGGSLRLSCAASGSIFGYYTMGWYRQAPGKERELVARITRGGSTYYADSVKGRFTISRDNAKNTVYLQMNSLYPEDTSVYYCNAEIWTEGGYWGQGSQVTVSS | low polyreactivity |
| QVQLVESGGGLVQAGGSLRLSCAASGFTFRYYAMGWYRPAPGKERELVATISRGGSTNYADSVKGRFTISRDNAKNTVYLQMNSLKPEDTAVYYCNARIYKGYNYWGQGTQVTVSS | high polyreactivity |
| QVQLQESGGGLVQAGGSQRLSSAASGYNFYFQYMGWYRQAPGKEREFVAAISDGANTNNADSVKGRFTISRDNAKNTEYLQMNSLKPEDSAVYYCAVYADDNYYYIYWGQGTQVTVSS | low polyreactivity |
| QVQHVESGGGLVQAGGSLRLSCAASGYIFPGSAMGWYRPAPGKERELVAAISTSGGYTYYADSVKGRFTISRDNAKNTVYFQMNSLNPEVTAVYYCAADRYSTDPYAKGTEFYYWGQGTQVTVSS | low polyreactivity |
| QVQLVDSGGGLVQAGGSLRLSSAASGRTFDYYAMGWYRQAPGKERELVAAITKDGGSTYYADSVKGRFTISRDNAKNTVFLQMNSLKPEDTAVYYCAADGPPLYYDPIHYDYWGQGTQVTVSS | low polyreactivity |
| QVQLVESGGGLVQAGGSLRLSCAASGSIFVLNAMGWSRQAPGKETELVAAISYSGTGTYYADSVKGRFTISRDNAKNTVYLQMNSLKPEDTAVYDCAADYYYRYRIYDYWGQGTQVTLSS | low polyreactivity |
| QVQLVESGGGLVQAGGSLRLSCAASGRIFGTNARVWYRQAPGKERELVADITSGGSTNYADSVKGRFTISRDNAKNTVYLQMNSLKPEDTAVYYCAADVIGDLRWYRDEYWGQGTQVTVSS | low polyreactivity |
| QVQLVESGGGLVQAGGSLRLSCAASGRTFSQYAMGWYRQAPGKERELVAAISWSGDSTYYADSVKGRFTISRDNAKNTVYLQMNSLKPEDTAVYDCAADRRVETPRYDYWGQGTQVTVSS | low polyreactivity |
| QVKLVESGGGLVQAGGSLRLSCAASGSIFSMYTMGWYRQAPGKARELVAAIDRSGGSTYYADSVKGRFTISRDNAKNTVYLQMNSLKPEDTAVYYCATDSVYIYDPYWSSIIEYDYWGQGTQVTVSS | low polyreactivity |
| QVQLVDSGGGLVQAGGSLRISCAASGRNFGYNAMGSYRQAPGKERELVAAISSGGSTYYADSVKGLFTISRDNAKNTVYLQINSLKPEDTAVYFCAAEDYPPYPTDYDYWGQGSQVTVSS | low polyreactivity |
| QVQIVESGGGLVQAGGSLRLSCSASGRIFVGNAMGWYRQAPGKERELVAAISQRGGSTYYADSVKGRFTISRDYAKNTVYFQMNSRKQDVTAVYSCNAACRRAATSIWSWYDHWGQGTQETVSS | low polyreactivity |
| QVQLVESGGGLVQAGGSLRLSCAASGSTFGRYAMGWYRQAPGKERELVATIDGSDGSTFYADSVKGRFTISRDNAKNTVYLQMNSLKPEDTAVYYCAAAWYDGYYYLVYYWGQGTQVTVSS | low polyreactivity |
| QVQLVESVGGLVQAGGSLRLSCAASGGMGWYRQAPGKERELVATISSVGSTNYADSVKGRFTISRDNAKNTVYLQMNSLKPEDTAVYYCNATGVQYFLYGYWGQGTQVTVSS | low polyreactivity |
| QVQLVESGGGLVQAGGSLRLSWAASGRTFNRYVMGWYRQAPGKERELVAAISRSGTSTYYADSVKGRFTISRDNAKNTVYLQMNSLKPEDTAVYYCAREYQTVSFKNYYWGQGTQVTVSS | high polyreactivity |
| QVQLVESGGGLVQAGGILRLSCAASGSIFYWSTMGWYIQAPGKERELVAAISSIDGNTYYADSVKGRFTISRDNAKNTVYLQMNSLKPEDTAVYYCAAAYYNTDYYYWGQGTQVTVSS | low polyreactivity |
| EEELVESGGGLVQAGGSLRLSCAASGRTFARNAMGWYRQAPGKERELVAGINFSGGNTYYADSVKGRFTISRDNAKNTVYLQMNSLKPEDTEVYYCAPRRYWEGDYWGQGTQVTVSS | low polyreactivity |
| QVQLVESGGGLVQAGGSLRLSCAASGYTFDYYAMGWYRQAPGKERELVAAISGSGSRTYYADSVKGRFTISRDNAKNTVYFQMNSLKPEDTAVYYCAAEYYYSDAGNYWGQGTQVTVSS | high polyreactivity |
| QVQLVESGGGLVQAGGSLRLSCAASGSIFAYYVMGWYRKAPGKERELVAAITSVGSTNYADSVKGRFTISRDNAKNTVYLQMNCLKPEDTAVYSCAAVQYQASYYYWGQGTQVTLSS | low polyreactivity |
| QVQLVESGGGVVQAGGSLRLSCAATGFTFAANTKGWYRQPPGKERELVADISGRGDRTSYADSVKGRFTISRDNAKYTVYLQINSLKPEDTAVYYCAVDIFYYSNVHYYYWGQGTQVTVSS | low polyreactivity |
| QVQLVESGGGLVQAGGSLRLSCAASGRTFYYNVMGWYRQAPGKESELVAAITNSGSTNYADSVKGRFTISRDNAKNTVYLQMNSLKPEDTAVYYCAARITYYGRKRGSRDYWGQGTQVTVSS | high polyreactivity |
